The values below are quoted from earlier work in article PMC10302803.

This data set addresses VEGF-P3CYC.

pKd: −log10 of the molar value.

Sequence of VEGF-P3CYC (main, as listed by the source): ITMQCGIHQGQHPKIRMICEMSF

Take VEGFR2 (from UniProt P35968): the pKd is 7.96.

As usually defined, the pKd is −log10 of the Kd, conventionally taken in molar units.
